Reference: patent publication US12667614B2, “Bacterial microcompartment virus-like particles” (National University of Singapore, priority 2020, dated 2026)

B1: Free APEX2 (evolved pea cytosolic ascorbate peroxidase), N-terminal His6, fused to S2CP(30); APEX2-S2CP(30), SEQ ID NO: 110 (Glycine max; A134P/E112K/K14D/W41F) (protein)
chain: MGSSHHHHHHSSGMGKSYPTVSADYQDAVEKAKKKLRGFIAEKRCAPLMLRLAFHSAGTFDKGTKTGGPFGTIKHPAELAHSANNGLDIAVRLLEPLKAEFPILSYADFYQLAGVVAVEVTGGPKVPFHPGREDKPEPPPEGRLPDPTKGSDHLRDVFGKAMGLTDQDIVALSGGHTIGAAHKERSGFEGPWTSNPLIFDNSYFTELLSGEKEGLLQLPSDKALLSDPVFRPLVDKYAADEDAFFADYAEAHQKLSELGFADAGSSKPEKPGSKITGSSGNDTQGSLITYSGGARG
B2: APEX2 + shell: APEX2 (evolved pea cytosolic ascorbate peroxidase), N-terminal His6, fused to S2CP(30), SEQ ID NO: 110, encapsulated in Cso-BMC (Cso-PSIIH) … (protein)
chain: MGSSHHHHHHSSGMGKSYPTVSADYQDAVEKAKKKLRGFIAEKRCAPLMLRLAFHSAGTFDKGTKTGGPFGTIKHPAELAHSANNGLDIAVRLLEPLKAEFPILSYADFYQLAGVVAVEVTGGPKVPFHPGREDKPEPPPEGRLPDPTKGSDHLRDVFGKAMGLTDQDIVALSGGHTIGAAHKERSGFEGPWTSNPLIFDNSYFTELLSGEKEGLLQLPSDKALLSDPVFRPLVDKYAADEDAFFADYAEAHQKLSELGFADAGSSKPEKPGSKITGSSGNDTQGSLITYSGGARG

What was measured:
[1] = substrate: COc1ccccc1O; assay: Steady-state kinetics of free APEX2 (guaiacol oxidation); format: biochemical, pea; settings: other: free APEX2 10 nM, guaiacol 0.20 to 2.0 mM, H2O2 1 mM, TBS-50/350 pH 8.0, mean with standard error, triplicates, 30.0 °C
Method: (§1) For APEX2, all reagents were made to the appropriate working concentrations using TBS-50/350 pH 8.0. Working solutions of guaiacol and H2O2, both at 10 mM, were prepared on the day of assay. The guaiacol solution was shaken vigorously at 30° C. to ensure complete dissolution before equilibration back to room temperature. The assay concentration for APEX2 was 10 nM, H2O2 1 mM and that for guaiacol ranged from 0.20 to 2.0 mM. Total reaction volume was 200 μL. Reactions were monitored by the absorbance of tetraguaiacol formed at 470 nm using a BioTek Synergy™ HT microplate reader. […] This time point was taken for initial rate, V0, measurement. Kinetic constants were obtained using non-linear least square Michaelis-Menten fitting in GraphPad Prism software.
To probe the capacity of the Cso-BMC for encasing enzymes of considerably different molecular sizes, an evolved pea cytosolic ascorbate peroxidase (APEX2), a 27.0 kDa monomer [Lam et al., Nature Methods 12(1): 51-54 (2015)], and E. coli beta-galactosidase (LacZ), a 466.0 kDa homotetramer, were chosen for encapsulation [Golan, et al., Biochimica et Biophysica Acta (BBA)—Bioenergetics, 1293(2): 238-242; Lam et al., Nature Methods 12(1): 51-54 (2015)]. […] Enzymes were also N-terminally tagged with the hexahistidine (Hiss) tag to facilitate downstream removal of unencapsulated enzymes that might co-purify with shells (Nichols, Kennedy, & Tullman-Ercek, 2019). Cso-PSIIH shells co-expressed with enzymes were constructed and purified. SDS-PAGE analysis and Western blotting confirmed the presence of the target enzymes in shell samples (FIG. 18A-B) and the average copy numbers of enzymes per shell were estimated by Coomassie blue densitometry (Table 8) [Hagen, A., et al., Nature Communications 9: 2881 (2018); Nichols et al., Methods in Enzymology, 617, 155-186 (2019)].
Encapsulation of an enzyme into a protein shell is known to alter the enzyme's catalytic properties in some cases. […]

[2] = substrate: COc1ccccc1O; assay: Steady-state kinetics of Cso-BMC encapsulated APEX2 (guaiacol oxidation); format: biochemical, pea; settings: other: encapsulated APEX2 10 nM, guaiacol 0.20 to 2.0 mM, H2O2 1 mM, TBS-50/350 pH 8.0, mean with standard error, triplicates, 30.0 °C
Method: as §1
To probe the capacity of the Cso-BMC for encasing enzymes of considerably different molecular sizes, an evolved pea cytosolic ascorbate peroxidase (APEX2), a 27.0 kDa monomer [Lam et al., Nature Methods 12(1): 51-54 (2015)], and E. coli beta-galactosidase (LacZ), a 466.0 kDa homotetramer, were chosen for encapsulation [Golan, et al., Biochimica et Biophysica Acta (BBA)—Bioenergetics, 1293(2): 238-242; Lam et al., Nature Methods 12(1): 51-54 (2015)]. […]

Protein	Km [1]	kcat [1]	kcat/Km [1]	Km [2]
B1	580 ± 70 µM	460 ± 20 s⁻¹	7.93 ± 1.02 × 10^5 (s^−1 · M^−1)	–
B2	–	–	–	790 ± 120 µM
